# B1: Gremlin-2 (Mus musculus), O88273 (parent)
# chain: MFWKLSLTLLLVAVLVKVAETRKNRPAGAIPSPYKDGSSNNSERWHHQIKEVLASSQEALVVTERKYLKSDWCKTQPLRQTVSEEGCRSRTILNRFCYGQCNSFYIPRHVKKEEDSFQSCAFCKPQRVTSVIVELECPGLDPPFRIKKIQKVKHCRCMSVNLSDSDKQ
# partner: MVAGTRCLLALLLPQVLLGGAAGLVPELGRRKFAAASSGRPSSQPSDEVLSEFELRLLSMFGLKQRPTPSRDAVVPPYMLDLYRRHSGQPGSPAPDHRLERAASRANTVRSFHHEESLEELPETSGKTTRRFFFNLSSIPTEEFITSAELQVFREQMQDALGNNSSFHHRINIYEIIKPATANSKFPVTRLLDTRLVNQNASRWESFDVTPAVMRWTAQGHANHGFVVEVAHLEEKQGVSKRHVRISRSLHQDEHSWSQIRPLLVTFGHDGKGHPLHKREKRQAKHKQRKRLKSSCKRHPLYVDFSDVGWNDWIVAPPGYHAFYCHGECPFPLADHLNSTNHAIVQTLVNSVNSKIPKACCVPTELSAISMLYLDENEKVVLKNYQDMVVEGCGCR
# B2: Gremlin-2 (Mus musculus), O88273 (parent)
# chain: B1 chain
# partner: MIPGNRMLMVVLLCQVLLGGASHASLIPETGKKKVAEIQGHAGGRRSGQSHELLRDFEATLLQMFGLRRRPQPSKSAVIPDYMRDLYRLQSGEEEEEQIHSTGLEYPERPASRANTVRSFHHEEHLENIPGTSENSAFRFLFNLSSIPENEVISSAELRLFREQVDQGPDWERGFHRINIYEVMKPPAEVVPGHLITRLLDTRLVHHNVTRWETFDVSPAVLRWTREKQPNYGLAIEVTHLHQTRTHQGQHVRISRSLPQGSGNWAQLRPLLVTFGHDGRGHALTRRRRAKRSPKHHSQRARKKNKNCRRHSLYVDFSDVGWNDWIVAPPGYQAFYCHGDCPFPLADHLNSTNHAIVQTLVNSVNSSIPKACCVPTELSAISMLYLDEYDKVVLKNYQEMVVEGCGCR
# Variants of: B1
# Conditions: with bmp2_human BMP2, P12643
row,Variant,effect of a mutation on the interaction
1,W72A,decreasing interaction strength
2,Y98A,decreasing interaction strength
3,F104A,decreasing interaction strength
4,Y105A,decreasing interaction strength
5,F117A,decreasing interaction strength

# Variants of: B2
# Conditions: with bmp4_human BMP4, P12644
row,Variant,effect of a mutation on the interaction
1,W72A,decreasing interaction strength
2,Y98A,decreasing interaction strength
3,F104A,decreasing interaction strength
4,Y105A,decreasing interaction strength
5,F117A,decreasing interaction strength
